Patent US20220306695A1, “COMPSTATIN ANALOGUES AND THEIR MEDICAL USES” (priority 2019, published 2022)
Starred links: 1 amine or outer side, 2 acyl side, 3 side chain; linkers in the order of their positions; H or OH if unused. Positions of bridges follow the written chain, without caps; N, C: chain ends. Non-standard residues stand in square brackets, D forms with d. Groups on a side chain read outwards from the residue. *: point of attachment. Trp(1-Me) = Cn1cc(C[C@H](N)C(=O)O)c2ccccc21; C16 diacid = O=C(O)CCCCCCCCCCCCCCC(=O)*; γGlu = O=C(O)[C@H](CCC(=O)[*:2])N[*:1]; NMeI = CC[C@H](C)[C@H](NC)C(=O)O; Sar = CNCC(=O)O

B1: Compound 75 (peptide)
peptide: Ac-SEFCI[Trp(1-Me)]QDWGEHRC[Sar]EA-NH2
modifications: disulfide 4-14
SMILES: CC[C@H](C)[C@@H]1NC(=O)[C@@H](NC(=O)[C@H](Cc2ccccc2)NC(=O)[C@H](CCC(=O)O)NC(=O)[C@H](CO)NC(C)=O)CSSC[C@@H](C(=O)N(C)CC(=O)N[C@@H](CCC(=O)O)C(=O)N[C@@H](C)C(N)=O)NC(=O)[C@H](CCCNC(=N)N)NC(=O)[C@H](Cc2c[nH]cn2)NC(=O)[C@H](CCC(=O)O)NC(=O)CNC(=O)[C@H](Cc2c[nH]c3ccccc23)NC(=O)[C@H](CC(=O)O)NC(=O)[C@H](CCC(N)=O)NC(=O)[C@H](Cc2cn(C)c3ccccc23)NC1=O
B2: Compound 82 (peptide)
peptide: Ac-SE[Sar]CI[Trp(1-Me)]QDWGEHRCTEA-NH2
modifications: disulfide 4-14
SMILES: CC[C@H](C)[C@@H]1NC(=O)[C@@H](NC(=O)CN(C)C(=O)[C@H](CCC(=O)O)NC(=O)[C@H](CO)NC(C)=O)CSSC[C@@H](C(=O)N[C@H](C(=O)N[C@@H](CCC(=O)O)C(=O)N[C@@H](C)C(N)=O)[C@@H](C)O)NC(=O)[C@H](CCCNC(=N)N)NC(=O)[C@H](Cc2c[nH]cn2)NC(=O)[C@H](CCC(=O)O)NC(=O)CNC(=O)[C@H](Cc2c[nH]c3ccccc23)NC(=O)[C@H](CC(=O)O)NC(=O)[C@H](CCC(N)=O)NC(=O)[C@H](Cc2cn(C)c3ccccc23)NC1=O
B3: Compound 48 (peptide)
peptide: H-[dY]ICI[Trp(1-Me)]QDW[Sar]AHRC[NMeI]-NH2
modifications: disulfide 3-13
SMILES: CC[C@H](C)[C@H](NC(=O)[C@H](N)Cc1ccc(O)cc1)C(=O)N[C@H]1CSSC[C@@H](C(=O)N(C)[C@H](C(N)=O)[C@@H](C)CC)NC(=O)[C@H](CCCNC(=N)N)NC(=O)[C@H](Cc2c[nH]cn2)NC(=O)[C@H](C)NC(=O)CN(C)C(=O)[C@H](Cc2c[nH]c3ccccc23)NC(=O)[C@H](CC(=O)O)NC(=O)[C@H](CCC(N)=O)NC(=O)[C@H](Cc2cn(C)c3ccccc23)NC(=O)[C@H]([C@@H](C)CC)NC1=O
B4: Compound 38 (peptide)
peptide: Ac-EKGICIWQDWGEHRCTEKP-NH2
modifications: disulfide 5-15
SMILES: CC[C@H](C)[C@H](NC(=O)CNC(=O)[C@H](CCCCN)NC(=O)[C@H](CCC(=O)O)NC(C)=O)C(=O)N[C@H]1CSSC[C@@H](C(=O)N[C@H](C(=O)N[C@@H](CCC(=O)O)C(=O)N[C@@H](CCCCN)C(=O)N2CCC[C@H]2C(N)=O)[C@@H](C)O)NC(=O)[C@H](CCCNC(=N)N)NC(=O)[C@H](Cc2c[nH]cn2)NC(=O)[C@H](CCC(=O)O)NC(=O)CNC(=O)[C@H](Cc2c[nH]c3ccccc23)NC(=O)[C@H](CC(=O)O)NC(=O)[C@H](CCC(N)=O)NC(=O)[C@H](Cc2c[nH]c3ccccc23)NC(=O)[C@H]([C@@H](C)CC)NC1=O
B5: Compound 46 (peptide)
peptide: Ac-ESSAICIWQDWGAHRCT-NH2
modifications: disulfide 6-16
SMILES: CC[C@H](C)[C@H](NC(=O)[C@H](C)NC(=O)[C@H](CO)NC(=O)[C@H](CO)NC(=O)[C@H](CCC(=O)O)NC(C)=O)C(=O)N[C@H]1CSSC[C@@H](C(=O)N[C@H](C(N)=O)[C@@H](C)O)NC(=O)[C@H](CCCNC(=N)N)NC(=O)[C@H](Cc2c[nH]cn2)NC(=O)[C@H](C)NC(=O)CNC(=O)[C@H](Cc2c[nH]c3ccccc23)NC(=O)[C@H](CC(=O)O)NC(=O)[C@H](CCC(N)=O)NC(=O)[C@H](Cc2c[nH]c3ccccc23)NC(=O)[C@H]([C@@H](C)CC)NC1=O
B6: Compound 55 (peptide)
peptide: Ac-EGSAICIWQDWGEHRCTE-NH2
modifications: disulfide 6-16
SMILES: CC[C@H](C)[C@H](NC(=O)[C@H](C)NC(=O)[C@H](CO)NC(=O)CNC(=O)[C@H](CCC(=O)O)NC(C)=O)C(=O)N[C@H]1CSSC[C@@H](C(=O)N[C@H](C(=O)N[C@@H](CCC(=O)O)C(N)=O)[C@@H](C)O)NC(=O)[C@H](CCCNC(=N)N)NC(=O)[C@H](Cc2c[nH]cn2)NC(=O)[C@H](CCC(=O)O)NC(=O)CNC(=O)[C@H](Cc2c[nH]c3ccccc23)NC(=O)[C@H](CC(=O)O)NC(=O)[C@H](CCC(N)=O)NC(=O)[C@H](Cc2c[nH]c3ccccc23)NC(=O)[C@H]([C@@H](C)CC)NC1=O
B7: Compound 92 (peptide)
peptide: Ac-ICIWQDWGEHRCTEGK([γGlu-C16 diacid])-NH2
modifications: disulfide 2-12
SMILES: CC[C@H](C)[C@H](NC(C)=O)C(=O)N[C@H]1CSSC[C@@H](C(=O)N[C@H](C(=O)N[C@@H](CCC(=O)O)C(=O)NCC(=O)N[C@@H](CCCCNC(=O)CC[C@H](NC(=O)CCCCCCCCCCCCCCC(=O)O)C(=O)O)C(N)=O)[C@@H](C)O)NC(=O)[C@H](CCCNC(=N)N)NC(=O)[C@H](Cc2c[nH]cn2)NC(=O)[C@H](CCC(=O)O)NC(=O)CNC(=O)[C@H](Cc2c[nH]c3ccccc23)NC(=O)[C@H](CC(=O)O)NC(=O)[C@H](CCC(N)=O)NC(=O)[C@H](Cc2c[nH]c3ccccc23)NC(=O)[C@H]([C@@H](C)CC)NC1=O
B8: Compound 39 (peptide)
peptide: Ac-ICIWQDWGEHRCTEGK-NH2
modifications: disulfide 2-12
SMILES: CC[C@H](C)[C@H](NC(C)=O)C(=O)N[C@H]1CSSC[C@@H](C(=O)N[C@H](C(=O)N[C@@H](CCC(=O)O)C(=O)NCC(=O)N[C@@H](CCCCN)C(N)=O)[C@@H](C)O)NC(=O)[C@H](CCCNC(=N)N)NC(=O)[C@H](Cc2c[nH]cn2)NC(=O)[C@H](CCC(=O)O)NC(=O)CNC(=O)[C@H](Cc2c[nH]c3ccccc23)NC(=O)[C@H](CC(=O)O)NC(=O)[C@H](CCC(N)=O)NC(=O)[C@H](Cc2c[nH]c3ccccc23)NC(=O)[C@H]([C@@H](C)CC)NC1=O
B9: Compound 42 (peptide)
peptide: Ac-SAICIWQDWGEHRCTEG-NH2
modifications: disulfide 4-14
SMILES: CC[C@H](C)[C@H](NC(=O)[C@H](C)NC(=O)[C@H](CO)NC(C)=O)C(=O)N[C@H]1CSSC[C@@H](C(=O)N[C@H](C(=O)N[C@@H](CCC(=O)O)C(=O)NCC(N)=O)[C@@H](C)O)NC(=O)[C@H](CCCNC(=N)N)NC(=O)[C@H](Cc2c[nH]cn2)NC(=O)[C@H](CCC(=O)O)NC(=O)CNC(=O)[C@H](Cc2c[nH]c3ccccc23)NC(=O)[C@H](CC(=O)O)NC(=O)[C@H](CCC(N)=O)NC(=O)[C@H](Cc2c[nH]c3ccccc23)NC(=O)[C@H]([C@@H](C)CC)NC1=O
B10: Compound 66 (peptide)
peptide: Ac-YCIWQDWGEHRCTGAES-NH2
modifications: disulfide 2-12
SMILES: CC[C@H](C)[C@@H]1NC(=O)[C@@H](NC(=O)[C@H](Cc2ccc(O)cc2)NC(C)=O)CSSC[C@@H](C(=O)N[C@H](C(=O)NCC(=O)N[C@@H](C)C(=O)N[C@@H](CCC(=O)O)C(=O)N[C@@H](CO)C(N)=O)[C@@H](C)O)NC(=O)[C@H](CCCNC(=N)N)NC(=O)[C@H](Cc2c[nH]cn2)NC(=O)[C@H](CCC(=O)O)NC(=O)CNC(=O)[C@H](Cc2c[nH]c3ccccc23)NC(=O)[C@H](CC(=O)O)NC(=O)[C@H](CCC(N)=O)NC(=O)[C@H](Cc2c[nH]c3ccccc23)NC1=O
B11: Compound 47 (peptide)
peptide: Ac-ICIWQDWGAHRCTGAES-NH2
modifications: disulfide 2-12
SMILES: CC[C@H](C)[C@H](NC(C)=O)C(=O)N[C@H]1CSSC[C@@H](C(=O)N[C@H](C(=O)NCC(=O)N[C@@H](C)C(=O)N[C@@H](CCC(=O)O)C(=O)N[C@@H](CO)C(N)=O)[C@@H](C)O)NC(=O)[C@H](CCCNC(=N)N)NC(=O)[C@H](Cc2c[nH]cn2)NC(=O)[C@H](C)NC(=O)CNC(=O)[C@H](Cc2c[nH]c3ccccc23)NC(=O)[C@H](CC(=O)O)NC(=O)[C@H](CCC(N)=O)NC(=O)[C@H](Cc2c[nH]c3ccccc23)NC(=O)[C@H]([C@@H](C)CC)NC1=O
B12: Compound 51 (peptide)
peptide: Ac-ICI[Trp(1-Me)]QDWGEHRCTGAES-NH2
modifications: disulfide 2-12
SMILES: CC[C@H](C)[C@H](NC(C)=O)C(=O)N[C@H]1CSSC[C@@H](C(=O)N[C@H](C(=O)NCC(=O)N[C@@H](C)C(=O)N[C@@H](CCC(=O)O)C(=O)N[C@@H](CO)C(N)=O)[C@@H](C)O)NC(=O)[C@H](CCCNC(=N)N)NC(=O)[C@H](Cc2c[nH]cn2)NC(=O)[C@H](CCC(=O)O)NC(=O)CNC(=O)[C@H](Cc2c[nH]c3ccccc23)NC(=O)[C@H](CC(=O)O)NC(=O)[C@H](CCC(N)=O)NC(=O)[C@H](Cc2cn(C)c3ccccc23)NC(=O)[C@H]([C@@H](C)CC)NC1=O
B13: Compound 62 (peptide)
peptide: Ac-YCI[Trp(1-Me)]QDWGEHRCTGAES-NH2
modifications: disulfide 2-12
SMILES: CC[C@H](C)[C@@H]1NC(=O)[C@@H](NC(=O)[C@H](Cc2ccc(O)cc2)NC(C)=O)CSSC[C@@H](C(=O)N[C@H](C(=O)NCC(=O)N[C@@H](C)C(=O)N[C@@H](CCC(=O)O)C(=O)N[C@@H](CO)C(N)=O)[C@@H](C)O)NC(=O)[C@H](CCCNC(=N)N)NC(=O)[C@H](Cc2c[nH]cn2)NC(=O)[C@H](CCC(=O)O)NC(=O)CNC(=O)[C@H](Cc2c[nH]c3ccccc23)NC(=O)[C@H](CC(=O)O)NC(=O)[C@H](CCC(N)=O)NC(=O)[C@H](Cc2cn(C)c3ccccc23)NC1=O

Each binder was assayed against Human C3 (human, UniProt P01024 23-1663) (assay: cell-based or functional assay).
Human C3, sequence (P01024 23-1663 limits assumed): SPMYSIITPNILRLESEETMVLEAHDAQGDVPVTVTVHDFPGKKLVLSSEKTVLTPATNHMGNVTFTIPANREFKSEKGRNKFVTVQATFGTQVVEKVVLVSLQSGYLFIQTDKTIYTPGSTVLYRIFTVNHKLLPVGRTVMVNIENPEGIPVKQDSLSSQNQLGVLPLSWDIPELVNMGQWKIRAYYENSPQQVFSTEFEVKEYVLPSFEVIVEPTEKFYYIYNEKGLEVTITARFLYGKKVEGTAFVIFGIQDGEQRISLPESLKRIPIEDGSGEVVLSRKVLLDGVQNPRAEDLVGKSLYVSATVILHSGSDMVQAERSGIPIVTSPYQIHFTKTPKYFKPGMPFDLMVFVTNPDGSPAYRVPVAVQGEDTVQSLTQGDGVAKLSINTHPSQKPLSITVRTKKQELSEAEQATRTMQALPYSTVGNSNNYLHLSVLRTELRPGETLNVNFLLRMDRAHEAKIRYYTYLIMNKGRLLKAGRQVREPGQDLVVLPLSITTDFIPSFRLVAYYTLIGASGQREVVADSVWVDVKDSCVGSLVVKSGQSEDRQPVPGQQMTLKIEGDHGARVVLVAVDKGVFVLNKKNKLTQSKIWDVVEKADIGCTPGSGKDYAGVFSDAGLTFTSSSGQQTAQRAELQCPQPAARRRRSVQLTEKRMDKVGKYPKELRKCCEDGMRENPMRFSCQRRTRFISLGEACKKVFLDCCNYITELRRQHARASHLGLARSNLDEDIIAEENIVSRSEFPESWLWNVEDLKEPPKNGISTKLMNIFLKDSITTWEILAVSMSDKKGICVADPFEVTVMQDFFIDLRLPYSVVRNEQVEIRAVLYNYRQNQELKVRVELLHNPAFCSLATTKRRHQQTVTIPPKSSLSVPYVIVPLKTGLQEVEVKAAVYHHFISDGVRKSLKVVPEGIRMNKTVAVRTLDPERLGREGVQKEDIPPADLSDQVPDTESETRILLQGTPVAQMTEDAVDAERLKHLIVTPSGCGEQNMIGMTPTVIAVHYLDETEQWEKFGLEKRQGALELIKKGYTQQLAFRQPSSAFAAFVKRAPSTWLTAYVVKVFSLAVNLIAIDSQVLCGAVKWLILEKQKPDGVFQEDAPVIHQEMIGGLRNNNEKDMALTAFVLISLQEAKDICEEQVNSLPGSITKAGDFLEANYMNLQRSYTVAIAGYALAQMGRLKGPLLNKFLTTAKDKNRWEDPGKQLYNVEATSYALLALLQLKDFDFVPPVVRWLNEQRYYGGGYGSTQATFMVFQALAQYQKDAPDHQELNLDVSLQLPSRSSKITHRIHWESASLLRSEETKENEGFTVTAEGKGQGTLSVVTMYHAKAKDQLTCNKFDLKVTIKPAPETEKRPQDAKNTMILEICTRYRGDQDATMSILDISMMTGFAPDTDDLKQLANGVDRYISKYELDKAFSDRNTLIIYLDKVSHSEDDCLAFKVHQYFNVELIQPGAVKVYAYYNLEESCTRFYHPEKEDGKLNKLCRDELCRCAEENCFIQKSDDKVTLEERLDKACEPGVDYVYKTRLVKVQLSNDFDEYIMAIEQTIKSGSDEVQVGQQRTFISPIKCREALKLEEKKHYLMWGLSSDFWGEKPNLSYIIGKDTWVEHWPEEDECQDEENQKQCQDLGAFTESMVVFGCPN

| Binder | IC50[nM], inhibition of hemolysis |
| --- | --- |
| B1 | < 100 nM |
| B2 | < 100 nM |
| B3 | < 100 nM |
| B4 | < 250 nM |
| B5 | < 100 nM |
| B6 | < 250 nM |
| B7 | < 1000 nM |
| B8 | < 100 nM |
| B9 | < 250 nM |
| B10 | < 100 nM |
| B11 | < 100 nM |
| B12 | < 100 nM |
| B13 | < 100 nM |
